Laboratory results as given in patent US12043658B2, “Conjugate comprising an active MMP-9-binding peptide” (Daiichi Sankyo Company, Limited, priority 2017, dated 2024).

B1: M91005_D1G-Fc-01: N-terminal derivative Fc conjugate: Stag+linker 1, M91005_D1G, C-terminal 6-mer, G4S linker and human IgG1 Fc (protein)
chain: GSGMKETAAAKFERQHMDSPDLGTDDDDKAMADIGSANSGPQFGLFSKYRTPNCRKRGGPSCQMSYNPVCGSDMSTYANECTLCMKIREGGHNIKIIRNGPCGASAAAGGGGSDKTHTCPPCPAPELLGGPSVFLFPPKPKDTLMISRTPEVTCVVVDVSHEPEVKFNWYVDGVEVHNAKTKPREEQYNSTYRVVSVLTVLHQDWLNGKEYCKVSNKALPAPIEKTISKAKGQPREPQVYTLPPSREEMTKNQVSLTCLVGFYPSDIAVEWESNGQPENNYKTTPPVLDSDGSFFLYSKLTVDKSRWQQNVFSCSVMHEALHNHYTQKSLSLSPGK
B2: M91002_G2: C-terminal derivative of M91002: Stag+linker 2 at the N-terminal, C-terminal 2-mer Gly-Gly (protein)
chain: GSGMKETAAAKFERQHMDSPDLGTDDDDKAMAENLYFQGDPQFGLFSKYRTPNCRTGRGPACQMGFQPVCGSDMSTYANECTLCMKIREGGHNIKIIRNGPCGG
B3: M91002_G0: C-terminal derivative of M91002: Stag+linker 2 at the N-terminal, no C-terminal addition (protein)
chain: GSGMKETAAAKFERQHMDSPDLGTDDDDKAMAENLYFQGDPQFGLFSKYRTPNCRTGRGPACQMGFQPVCGSDMSTYANECTLCMKIREGGHNIKIIRNGPC
modifications: linker; binder
notes: C-terminal derivative of M91002: Stag+linker 2 at the N-terminal, no C-terminal addition
B4: M91002_G3: C-terminal derivative of M91002: Stag+linker 2 at the N-terminal, C-terminal 3-mer Gly-Gly-Gly (protein)
chain: GSGMKETAAAKFERQHMDSPDLGTDDDDKAMAENLYFQGDPQFGLFSKYRTPNCRTGRGPACQMGFQPVCGSDMSTYANECTLCMKIREGGHNIKIIRNGPCGGG
B5: wild type SPINK2: Serine Protease Inhibitor Kazal-type 2, human, SEQ ID NO: 1 (FIG. 15) (protein, listed as Homo sapiens)
chain: DPQFGLFSKYRTPNCSQYRLPGCPRHFNPVCGSDMSTYANECTLCMKIREGGHNIKIIRNGPC

How the values were obtained:
[1] = target: T1, human MMP-9 enzyme active domain E402Q mutant (Homo sapiens, UniProt P14780, E402Q); test: Size exclusion chromatography binding to hMMP-9(cat)_E402Q_His6; conditions: 25 μM enzyme, 75 μM inhibitor
T1 construct: an enzyme active domain E402Q mutant (Phe107-Pro449, E402Q) and a His tag; made in house; host or cells: FreeStyle 293F
T1 sequence (P14780 107-449 E402Q): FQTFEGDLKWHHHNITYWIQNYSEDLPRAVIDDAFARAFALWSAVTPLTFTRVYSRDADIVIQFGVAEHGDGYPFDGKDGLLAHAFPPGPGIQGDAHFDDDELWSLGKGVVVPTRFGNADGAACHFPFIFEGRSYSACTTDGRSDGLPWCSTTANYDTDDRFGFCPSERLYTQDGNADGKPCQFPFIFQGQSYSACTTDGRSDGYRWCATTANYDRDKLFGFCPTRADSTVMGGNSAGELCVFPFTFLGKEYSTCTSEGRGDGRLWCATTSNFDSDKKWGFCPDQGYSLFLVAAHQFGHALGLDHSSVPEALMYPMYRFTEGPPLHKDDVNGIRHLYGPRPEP
Description: (§1) With M91005 and M91011 prepared in (1-2), active hMMP-9(cat)_His6 prepared in (2-1-4), and hMMP-9(cat)_E402Q_His6 prepared in (11-3), the binding activity was evaluated by size exclusion chromatography. 25 μM active hMMP-9(cat)_His6 or hMMP-9(cat)_E402Q_His6 and 75 μM active MMP-9-binding peptide or hTIMP-1 (in-house preparation) were mixed, and reacted at 4° C. for 1 hour. After the reaction, 10 μl of the reaction solution was analyzed by size exclusion chromatography. The chromatographic conditions were as follows.
(§2) Detection: Absorbance (280 nm)
(§3) When only active hMMP-9(cat)_His6 was analyzed, the peak of active hMMP-9(cat)_His6 was detected at a retention time of 7.0 minutes (FIG. 53(A)). When a mixture reaction solution of active hMMP-9(cat)_His6 and hTIMP-1 or active MMP-9-binding peptides M91005 or M91011 was analyzed, the retention time of the peak of active hMMP-9(cat)_His6 was shifted to the high molecular weight side (FIG. 53(A)). […] When only human MMP-9(cat)_E402Q_His6 was analyzed, the peak of hMMP-9(cat)_E402Q_His6 was detected at a retention time of 7.1 minutes (FIG. 53(B)). When a mixed reaction solution of human MMP-9(cat)_E402Q_His6 and hTIMP-1 was analyzed, the retention time of the peak of hMMP-9(cat)_E402Q_His6 was shifted to the high molecular weight side (FIG. 53(B)). […] In contrast, when a mixture reaction solution of hMMP-9(cat)_E402Q_His6 and the active MMP-9-binding peptide M91005 or M91011 was analyzed, the retention time of the peak of the hMMP-9(cat)_E402Q_His6 was not changed (FIG. 53(B)). It should be noted that when only hTIMP-1 or the active MMP-9-binding peptides M91005, M91011 was analyzed, the peak of hTIMP-1 was detected at a retention time of 7.3 minutes, the peak of the active MMP-9-binding peptide M91005 was detected at a retention time of 8.2 minutes, and the peak of the active MMP-9-binding peptide M91011 was detected at a retention time of 8.1 minutes (FIG. 53(C)).

[2] = target: T2, active human MMP-9 enzyme active domain (Homo sapiens, UniProt P14780); test: Size exclusion chromatography binding to active hMMP-9(cat)_His6; design: an enzyme active domain (Phe107-Pro449) and a His tag; made in house; host or cells: FreeStyle 293F; conditions: 25 μM enzyme, 75 μM inhibitor
T2 sequence (P14780 107-449): as the sequence (P14780 107-449 E402Q) above, with Q296E counted along it
Description: as §1, §2, §3

[3] = target: T3, human MMP-9 (active hMMP-9(cat)_His6) (Homo sapiens, UniProt P14780); test: Human MMP-9 inhibitory activity of active MMP-9-binding peptide derivatives (substrate peptide); assay type: biochemical; conditions: 0.6 nM active hMMP-9(cat)_His6
T3 construct: an enzyme active domain (Phe107-Pro449) and a His tag; made in house; host or cells: FreeStyle 293F
T3 sequence (P14780 107-449): as the sequence (P14780 107-449 E402Q) above, with Q296E counted along it
Description: The substrate peptide MOCAc-KPLGL-A2pr (Dnp)-AR-NH2 (SEQ ID NO: 30 (FIG. 46)) (PEPTIDE […], INC.; 3226-v) was dissolved in water to 1 mM, and diluted with an assay buffer (50 mM Tris-HCl, 200 mM NaCl, 2 mM CaCl2, pH 7.5) to use at a final concentration of 2.5 to 10 μM. Fifty μl each of the active hMMP-9(cat)_His6 diluted with the assay buffer and the active MMP-9-binding peptide were mixed, and reacted at 37° C. for 1 hour. Then, 100 μl of the substrate diluted with the assay buffer was added, and fluorescence signals (excitation 328 nm/emission 393 nm) were measured with Enspire (PerkinElmer, Inc.). The final concentration of active hMMP-9(cat)_His6 was 0.4 nM, and the final concentration of the active MMP-9-binding peptide was 0.5 to 25 nM. For reactions and measurements, a ProteoSave™ SS96F black plate (Sumitomo Bakelite Co., Ltd.) was used.
According to the method described in (4-1), human MMP-9 inhibitory activity of each of the binding peptides was evaluated with 0.6 nM final concentration of active hMMP-9(cat)_His6 and 0.0015 to 100 nM final concentration of each active MMP-9-binding peptide (FIGS. 11(A), 12(A), and 13(A)).

[4] = target: T2, active human MMP-9 enzyme active domain; test: ELISA binding to immobilized active human MMP-9 enzyme active domain; conditions: 1 to 1,000 nM peptide, S-tag detection
Description: (§4) The biotin-labeled pro-hMMP-9(cat)_His6_FLAG_Avi obtained in (2-1-6) or biotin-labeled active hMMP-9(cat)_FLAG_Avi obtained in (2-1-7) was immobilized on a streptavidin coated 96-well plate (Thermo Fisher Scientific). After blocking with 3% BSA, 1 to 1,000 nM of the binding peptides were added, and reacted at room temperature for 1.5 hours. After washing, goat anti-S-Tag HRP conjugated (Bethyl Laboratories, Inc.) was added, and reacted at room temperature for 1 hour. After washing, substrates of ELISA POD substrate A.B.T.S kit (Nacalai Tesque Inc.) were added, and reacted at room temperature. After adding a reaction stop solution, the absorbance at 405 nm was measured with Enspire (PerkinElmer, Inc.), and MMP-9-binding activity of the active MMP-9-binding peptides was evaluated.

[5] = target: T4, pro human MMP-9 enzyme active domain (Homo sapiens, UniProt P14780); test: ELISA binding to immobilized pro human MMP-9 enzyme active domain; conditions: 1 to 1,000 nM peptide, S-tag detection
T4 construct: a propeptide (Ala20-Arg106), an enzyme active domain (Phe107-Pro449), a FLAG tag; made in house; host or cells: FreeStyle 293F
T4 sequence (P14780 20-449): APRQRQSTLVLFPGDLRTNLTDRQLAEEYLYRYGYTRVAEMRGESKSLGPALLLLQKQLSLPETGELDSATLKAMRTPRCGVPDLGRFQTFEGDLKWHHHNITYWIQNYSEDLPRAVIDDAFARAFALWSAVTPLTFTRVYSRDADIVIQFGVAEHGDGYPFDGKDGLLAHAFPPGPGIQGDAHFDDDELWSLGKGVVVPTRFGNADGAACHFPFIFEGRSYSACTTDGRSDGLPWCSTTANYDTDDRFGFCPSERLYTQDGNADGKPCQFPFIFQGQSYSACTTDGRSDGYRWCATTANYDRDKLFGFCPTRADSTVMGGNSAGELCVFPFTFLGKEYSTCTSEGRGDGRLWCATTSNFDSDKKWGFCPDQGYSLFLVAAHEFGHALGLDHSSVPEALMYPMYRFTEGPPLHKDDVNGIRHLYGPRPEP
Description: as §4

Row | Molecule | human MMP-9 inhibitory activity IC50 compared with parent [3] | also measured
1 | hTIMP-1: hTIMP-1 (in-house preparation) [reference compound] | – | binding to human MMP-9 enzyme active domain E402Q mutant (peak shift) [1]: binds to the human MMP-9 enzyme active domain E402Q mutant; binding to active human MMP-9 enzyme active domain (peak shift) [2]: bind to the active human MMP-9 enzyme active domain
2 | B1 | M91005-Fc-01 and M91005_D1G-Fc-01 are equivalent | –
3 | B2 | equivalent to that of M91002 | –
4 | B3 | equivalent to that of M91002 | –
5 | B4 | equivalent to that of M91002 | –
6 | B5 | – | active human MMP-9-binding activity (EC50) [4]: did not bind; pro human MMP-9-binding activity [5]: did not bind
